Molecular target: T1, µ1 MHD carrying a C-terminal Avitag, WT (UniProt Q9BXS5 158-423)
T1 sequence (looked up): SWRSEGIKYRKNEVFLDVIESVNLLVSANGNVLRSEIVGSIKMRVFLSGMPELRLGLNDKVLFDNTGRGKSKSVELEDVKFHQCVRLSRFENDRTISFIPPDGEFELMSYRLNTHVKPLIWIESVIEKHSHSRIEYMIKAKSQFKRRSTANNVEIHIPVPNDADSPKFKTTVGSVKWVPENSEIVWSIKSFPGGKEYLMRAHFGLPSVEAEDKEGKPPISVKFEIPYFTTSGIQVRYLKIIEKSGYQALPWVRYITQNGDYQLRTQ
Assay: SPR

CKVTRRPKASDYQRL [TGN38 peptide carrying a canonical YXXΦ signal]
Kd: ~20 µM

From paper PMC5584140 (The Journal of Cell Biology, 2017)
